Data: the nanobody polyreactivity screen of Harvey et al. (2022)

assay: yeast display, Sf9 membrane polyspecificity reagent, FACS + sequencing; frameworks hold sequencing errors
Procedure, shortened: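 Nanobodies from a synthetic yeast display library (Saccharomyces cerevisiae BJ5465), induced 36–48 hours with galactose, were stained 1 hour at 4 °C with 10% biotinylated, detergent-solubilized Sf9 membrane reagent, enriched on streptavidin microbeads, then FACS-sorted. Anti-HA (expression) and streptavidin (reagent binding) fluorescence set low and high (top ~1%) gates. Polyreactivity labels come from the gate of origin. Genes were colony-PCR amplified, MiSeq 2 × 250 sequenced and filtered by CDR length.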

Row | Sequence | polyreactivity (PSR sort gate)
1 | QVQLVESGGGLVQAGGSLRLSCAASGFTFPEYDMGWYRQAPGKERELVAAINYSDGRTFYADSVKGRFTISRDNAKNTVYLQMNSLKPEDTAVYYCATDLSYDVWFFGPDYDYWGQGTQVTVSS | low polyreactivity
2 | QVQLVESGGGLVQAGGSLRLSCGASGNTFYPNAMGWYRQAPGKERELVAAITTSGVTTYYADSVKGSFTISRDNAKNTVYLQINSLKPEDTAVYYCAAYWSRDKYYYWGQGTQVTVSS | low polyreactivity
3 | QVQLVESGGGLVQAGGSLRLSCAASGSTFGSYAMGWYRQAPGKERELVAAISTRGGRTRYADSVKVRFTISRDNAKNTVYLQMNSLKPQDTAVDYCATRIGSRVYNVSGYYRKDDYWGQGTQVTVSS | high polyreactivity
4 | QVQLVESGGGLVQAGGSLRLSCAASGFTFGVYAMGWYRQAPGKERELVAAITSGGGRTYADSVKGRFTISRDNAKNTVYLQMNSLKPEDSAVYYCAAQQGISNGTGVSATNPMDYWGQGTQVTVSS | low polyreactivity
5 | QVQLVESGGGLVQAGGSLRLSCAASGSTFAYYAMGWYRPAPGTERELVAAISSGGSTYYADSVKGRFTISRDNAKNTVYLQMNSLKPEDTAVYYCAADAVKASVSYIVPYAAYDYWGQGTQVTVSS | low polyreactivity
6 | LVQLVESGGGLVQAGGSLRLSCAASGFISPSYALGWYRQAPGKERELVAAIRSSDGSTYYADSVKGRFTISRDNAKNTAYVQMNSRKPEDTAVYYCAAGGSSYRDDYWGQGSQVTVSS | low polyreactivity
7 | QVQLVESGGGLVQAGGSLRLSCAASGSIFYVYAMGRYRQAPGTEWELVAAISSGDISYYADSVKGRFTISRDNAKNTVYLQKNSLKPEDTAVYYCNAERLGNTLSPGGDDYWGQGTQVTVSS | low polyreactivity
8 | QVQLVESGGGLVQAGGSLRLSCAASGRIFNIYAMGWYRQAPGKERELVAAISVSGTRTYYADSVKGRFTISRDNAKNTVYLQMNSLKPEDTAVYYCAADSYGGDWTEHMYYWGQGTQVTVSS | low polyreactivity
9 | QVQLVDSGGALVQAGGSLRLSCAASGSTFAYYAMGWYRQAPGKERELVAAITASATNTYYADSVKGRFTISRDNAKNTVYLQMNSLKPEDTAVYYCAADDVDVEHQASWDDYDSWGQGTQVTVSS | low polyreactivity
10 | QVQLVESGGGLVQAGGSLRLSCAASGRTFQDYAMGWYRQAPGKERELVAVINSGGSTYYADSVKGRFTISRDNAKNTVYLQMNSLKPEDTAVYYCAKGYWFYPWYHGYYWGQGTQVTVSS | high polyreactivity
11 | QVQLVESGGGLVQAGGSLRLSCAASGSLFKRNAMGWYRQAPGKERELVAAITSSGGRTYYADSVKGRFTISRDNAKNTVYLLMNSLKPEDTAVYYCNKVRAGRDERRAGDYWGQGTQVTVSS | high polyreactivity
12 | PVQLVESGGGLVQAGGSLRLSCAASGSIFVTYAMGWYRQAPGKERELVATITYSGGSTSYADSVKGRFTISRDNAKNTVYLQMNSLKPEDTAVYYCAADLDSDFDYWGQGTQVTVSS | low polyreactivity
13 | QVQLVESGGGLFQAGGSLRISCAPSGFISHFYAMAWYRHAPGKEREFVARISYSVGSTYYADSVKGRFTISRDNAKNTVYVQMNSLKPEDTAVYDCNAGPQYDVHEYYYWGQGTQVTGSS | low polyreactivity
14 | QVQLVESGGGLVQAGGSLRLSCAASGRIFVVNAMGWYRQAPGKERELVATITRGASTYADSVKGRFTISRDNAKNTVYLQMNSLKLEDTAVYYCAAAKRPQVVRYDWTKLEYWGQGTQVTVSS | high polyreactivity
15 | QVQLVESVGGLVQAGGSLRLSCAASGSIFVTNAMGWYRQAPGKERELVAAISSGGNTNYADSVKGRFTISRDNAKNTVYLQMNSRKPEDTAVYYCAKDPDKVDYVDMDYWGQGTQVTVSS | low polyreactivity
16 | QGQLVESGGGLVQAGGSLRLSCAASGSTFTRYGMGWYRQAPGKERELVAAITTSGSSTYYADSVKGRFTISRDNAKNTVYLQMNSLKPEDTAVYYCAADWSSWGFDYWGQGTQVTVSS | low polyreactivity
17 | QVQLVESGGGLVQEGGSLRLSCAASGRTFGYYAMGWYRQAPGKERELVAAITRNGGRTYYADSVKGRFTISRDNAKNTVYLQMNSLKPEDTAVYYCAKDQYKPEAFYYWGQGTQVTVSS | high polyreactivity
18 | QVQLVESGGGLVQAGGSLRLSCAASGRIWSRYAMGWYRQAPGKERELVAAITQSGTSTYYADSVKGRFTFSRDNAKNTVYLQMNSLKPEDTAVYYCNAYRQYRYDYWGQGTQVTVSS | low polyreactivity
19 | QVQLVESGGGLVQAGGSLRLSCAASGSIFRWYAMGWSRQAPGKEREFVAAITSSGGSTYYADSVKGRFTISRDNAKNTVYLQMNSLKPEDTAVYYCNRRYQPYSYDYWGQGTQVTVSS | high polyreactivity
20 | QVQLVESGGGLVQAGGILSLSCAASGSTLNSYAMGWNRPAPGKERELVAAIRWSGSSTYYADSVKGRFTISRDNAKNSVFLQMNSLKPQDTAVYYCAKGYSYGRPWDIYYYCGQGTQVTVSS | low polyreactivity

Row | Sequence | polyreactivity (PSR sort gate)
21 | QVQLVESGGGLVQEGGSLLLSCAASGRTFNQYAMGWYRQAPGKERELVAGITISGGSTYYADSVKGRFTISRENAKNTVYLQMNSLIPEDTAVYYCIAVFDYYRQSKWTMDYWGQGTQVTVSS | low polyreactivity
22 | QVQLVESGGGLVQAGGSLRLSSAASGFTFARYAMGWYRQAPGKERELVAAITFSGTRTYYADSVKGRFTISRDNAKNTVYLQMNSLKPEDTAVYYCAAVVQTKAYRKAVYYFSSYDYWGQGTQVTVSS | high polyreactivity
23 | QVQLVESGGGLVQAGGSLRLSCAASGSTFVQYAKGWSRQAPGKERELVATISKSGGDTYADSVKGRFTISRDNAKNTVYLQMNSLKPEDTAVYYCAAGYTWVSHRYRYAYNYWGQGTQVTVSS | low polyreactivity
24 | QVQLVESGGGLVQAGGSLRLSCAASGSIFRSYAMGWYRQAPGKERELVAAISWDGGTTYYADSVKGRFTISRDNAKNTVYLQMNSLKPEDTAVYYCAADASLLGLFQGYDYRGQGTQVTVSS | low polyreactivity
25 | QVQLVESGGGLVQAGGSLRLSCAASGITFPYYAMGWYRQAPGKERELVAAISAGGTRTYYADSVKGRFTISRDNAKNNVYLQMNSLKPEDTAVYYCAARVWPIVQNYYWGQGTQVTVSS | high polyreactivity
26 | QVQLVESGGGLVQAGGSLRLSCAASGRIFRGYAMGWYRQAPGKERELVATISAIGGSTYADSVKGRFTISRHNAKNTVYLQMNSLKPEDTAVYYCNVRKVYRYQYRFEYWGQGTQVTVSS | high polyreactivity
27 | QDQLVESGGGLDQAGGSLRLSCAASGSTFPGYAMGWYRQAPGKERELVASIYTGGSTYYADSVKGRFTISRDNAKNTVYLQMNSLKPEDTAVYYCAADSYNVSSLLYYWGQGTQVTVSS | low polyreactivity
28 | QVQLVESGGGLVQAGGSLRLTCAASGRIFLINAMGWYRPAPGKERDLVATISRSGASTDYADSVKGRFTISRDNAKYIVYLQMKSMKPEDTAVYYCNAKVYKRRVVPYDYWGQGSQVTVSS | high polyreactivity
29 | QVQLVESAGGLVQAGGSLRLSCAASGFTFYGYAMGAYSQAPGKERELVAAITSGGSTNYADAVKGRFTISRDNAKNTVYVQLNSLKPEDTAVYHCAAVWVANTARYSDTFGYWGQGTQVTVSS | high polyreactivity
30 | QVQLVESGGGLVQAGGSLRLSCAASGLIFFTYAMGWYRHAPGKERELVATISRGGRTKYADSVKGRFTISRDNAKNTVYLQMNSLKPEDTAVYYCAAYLSRSYYAYDYWGQGTQVTVSS | high polyreactivity
31 | QVQLVESGGGLVQAGGSLRLSCAASGITFGWYAMGWYRQAPGKERELVAAITWDGGSTYYADSVKGRFTFSRDNAKNTVYLQMNSLKPEDTAVYYCAAEYIYYYYLVARDYWGQGTQVTVSS | high polyreactivity
32 | QVQLVESGGGLVQAGGSLRLSCAASGRIFCSYTMGWYRQAPGKERELVAAISWRGGSTYYADSVKGRFTISRDNAKNTVYLQMNSLKPEDTAVYYCAADSRSPPGDYWGQGTQVTVSS | low polyreactivity
33 | QVQLVESVVGLVQAGRSLRLSCAASGYTFWQYAMGWYRQAPGKERELVATITSRGGSTYYADSVKGRFTISRDTAKNSVYFQMNSLKPEDTAVYYCAARVYYPSTSNAAYGYCGQGTQVTVSS | high polyreactivity
34 | QVQLVESGGGLVQAGGSLRLSCAASGFTFQAYAMGWYRQAPGKVRELVAAINFSTGRTYYADSVKGRFTISRDNAKNTVYLQMNSLKPEDTAVYYCAADGSWTRSYDFDYWGQGTQVTVSS | high polyreactivity
35 | QDQLVESGGGLVQAGGSLRLSCAASGSILRAYAMGWYRQAPGKERELVADIDWSAGITHYADSVKGRFTISRDNAMNPVYLQMNSLKPEDTAVYYCSARYYWYDYIVYYGDYWGQGTLVTVSS | high polyreactivity
36 | QVQLVESGGGLVQAGGSLRLSCAASGLIYSAYAMGWYRQAPGKEREFVAAISRSGGITFYADSVKGRFTISRDNAKNTVYLQMNSLKPEDTAVYYCAARRSKYRRGGGYYWGQGTQVTVSS | high polyreactivity
37 | QVQLEESGGRLVQAGGSLRLSCAASGYTFPLYAMGWYRQAPGKERELVADINIGGASTYYADSVKGRFTISRDNAKNTVYLQMNSLKPEDTAVYYCAAEDSWYWDAWFDYWGQGTQVTVSS | low polyreactivity
38 | QVQLVESGGGLVQAGGSLSLSCAASGGIFAYNAMGWYRQAHGKEREWVATISSGVSTNYADSVKGRFTISRDNAKNTVYLQMNSLKPEDTAVYYCAAAIFITGYGSYGYWGQGTQVTVAS | low polyreactivity
39 | QDQLVESGRGLFQAGGSLRLSCAASGSTLWANAMGWYRQAPGKERELVAAISWRGGRTYYADSVKGRFTISRDNAKNTVYLQMNSLKPEVTAVYYCNAVSYYRPRTDYWGQGTLVTVSS | high polyreactivity
40 | QVQLVESGGGLVQAGGSLRLSCDASGRIFYANAIGWYRQAPGKEREFVAAITRSGGSTYYADSVKGRFTISRDNAKNTVYLQMNSLKPEETAVYYCAAQGGDVYGWRYYYWGQGTQVTVSS | low polyreactivity
